Data taken from patent publication US20250144104, “DISCOVERY OF A NEW INHIBITOR FOR THE YTH DOMAIN-CONTAINING M6A RNA READERS” (The Trustees of Boston College, published 2025).

T1: YTHDF1 YTH domain (UniProt Q9BYJ9 Q9BYJ9:375-552)
T1 sequence: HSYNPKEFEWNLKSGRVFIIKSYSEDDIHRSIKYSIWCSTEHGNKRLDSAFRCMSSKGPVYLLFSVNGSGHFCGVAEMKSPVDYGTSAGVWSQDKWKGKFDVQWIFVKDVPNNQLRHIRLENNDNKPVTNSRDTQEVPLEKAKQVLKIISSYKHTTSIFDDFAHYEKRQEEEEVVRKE

T2: YTHDF3 YTH domain (UniProt Q7Z739 Q7Z739:391-585)
T2 sequence: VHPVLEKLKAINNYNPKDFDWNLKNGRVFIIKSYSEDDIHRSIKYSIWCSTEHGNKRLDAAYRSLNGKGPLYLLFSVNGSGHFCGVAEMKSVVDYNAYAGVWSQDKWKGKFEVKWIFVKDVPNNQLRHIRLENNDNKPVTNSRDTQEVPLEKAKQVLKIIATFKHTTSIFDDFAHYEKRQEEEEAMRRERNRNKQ

T3: YTHDF2 YTH domain (UniProt Q9Y5A9 Q9Y5A9:383-553)
T3 sequence: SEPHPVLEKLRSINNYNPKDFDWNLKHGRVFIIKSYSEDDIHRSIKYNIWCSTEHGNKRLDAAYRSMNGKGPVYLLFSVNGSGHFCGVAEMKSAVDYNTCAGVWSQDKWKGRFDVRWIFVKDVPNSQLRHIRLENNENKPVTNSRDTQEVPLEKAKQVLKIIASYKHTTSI

T4: YTHDC2 YTH domain (UniProt Q9H6S0 Q9H6S0:1285-1424)
T4 sequence: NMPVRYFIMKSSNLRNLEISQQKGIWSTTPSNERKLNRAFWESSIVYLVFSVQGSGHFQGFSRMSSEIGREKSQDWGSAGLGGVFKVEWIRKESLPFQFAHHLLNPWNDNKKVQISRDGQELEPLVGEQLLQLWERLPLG


Tests used:
FTO = FTO (UniProt Q9C0B1 Q9C0B1:1-505); experiment: FP; value only in figure; 50 mM borate pH 7.5; conditions: tags: His-tag (Ni resin purified), E. coli BL21(DE3); label: 5'-FAM
YTHDF1 YTH domain = target: T1, YTHDF1 YTH domain; experiment: FP; 25 mM Tris-HCl pH 7.5, 150 mM NaCl, 25 C; conditions: tags: N-terminal His-tag (pET28a), E. coli BL21(DE3); label: 5'-FAM
Procedure: (§1) Fluorescence polarization (FP) experiments were performed following the previously reported FP assay conditions for FAM-labeled RNA and YTH domains. Briefly, experiments were conducted in the binding buffer containing 25 mM Tris-HCl, pH 7.5, and 150 mM NaCl[50]. The same binding buffer was used in this study unless otherwise specified. RNA samples were diluted to 50 nM from the stock solutions by the binding buffer. YTH domain proteins were thawed, buffer exchanged into the binding buffer at 4° C. using the 10 kDa-cutoff concentrators (Sigma-Aldrich), and adjusted to 2× of the highest concentration used in the binding assay. […] RNase inhibitor (SUPERaseIn, Invitrogen) was added. 40 L protein solutions with various concentrations were prepared by serial dilution using the binding buffer. Subsequently, we added 40 L diluted RNA into each 40 L protein solution, mixed, and incubated at room temperature for 30 minutes. The final concentration of FAM-m⁶A-RNA or FAM-A-RNA was constant at 25 nM, and the YTH-domain protein concentrations varied from 10 nM to 24 μM. […] After incubation, samples were transferred to a black polypropylene 384-well round-bottom plate (Cellvis) and FP was measured on a Synergy™ Neo2 Multimode Microplate Reader at the wavelength of 485/20 nm for excitation and 528/20 nm for emission at 25° C.

YTHDC1 YTH domain [1] = target: T5, YTHDC1 YTH domain (UniProt Q96MU7 Q96MU7:345-509); experiment: EMSA; 20 nM protein, 25 nM RNA, 10 mM HEPES, 50 mM KCl, 1 mM EDTA; complex inhibited by N-7
YTHDF3 YTH domain [2] = target: T2, YTHDF3 YTH domain; experiment: FP; value only in figure; 25 mM Tris-HCl pH 7.5, 150 mM NaCl; conditions: tags: N-terminal His-tag (pET28a), E. coli BL21(DE3); label: 5'-FAM
Procedure: as §1

YTHDF2 YTH domain [3] = target: T3, YTHDF2 YTH domain; experiment: as above; conditions: tags: N-terminal His-tag (pET28a), E. coli BL21(DE3); label: 5'-FAM
Procedure: as §1

YTHDF3 YTH domain [4] = target: T2, YTHDF3 YTH domain; experiment: competition; value only in figure; 2 uM protein, 25 nM FAM-m6A-RNA; conditions: tags: N-terminal His-tag (pET28a), E. coli BL21(DE3); label: 5'-biotin
YTHDF2 YTH domain [5] = target: T3, YTHDF2 YTH domain; experiment: as above; conditions: tags: N-terminal His-tag (pET28a), E. coli BL21(DE3); label: 5'-biotin
YTHDC1 YTH domain [6] = target: T5, YTHDC1 YTH domain; experiment: as above
YTHDC2 YTH domain = target: T4, YTHDC2 YTH domain; experiment: competition; value only in figure; 10 uM protein, 25 nM FAM-m6A-RNA; conditions: tags: N-terminal His-tag (pET28a), E. coli BL21(DE3); label: FAM
Source text: To set up the FP competition assay, we first used the non-fluorescent “m⁶A-RNA” (FIG. 1C) as a positive control inhibitor. […] Samples were transferred onto the 384-well plate and measured on the plate reader as described above. We obtained the dose-response curves by plotting the FP values against concentrations of inhibitors. The inhibitory curves and IC₅₀ values were obtained using the “Dose-response Inhibition” model in GraphPad Prism6.0™.

Sequence of FTO (Q9C0B1 whole entry, the tested form may be a part, one chain of several): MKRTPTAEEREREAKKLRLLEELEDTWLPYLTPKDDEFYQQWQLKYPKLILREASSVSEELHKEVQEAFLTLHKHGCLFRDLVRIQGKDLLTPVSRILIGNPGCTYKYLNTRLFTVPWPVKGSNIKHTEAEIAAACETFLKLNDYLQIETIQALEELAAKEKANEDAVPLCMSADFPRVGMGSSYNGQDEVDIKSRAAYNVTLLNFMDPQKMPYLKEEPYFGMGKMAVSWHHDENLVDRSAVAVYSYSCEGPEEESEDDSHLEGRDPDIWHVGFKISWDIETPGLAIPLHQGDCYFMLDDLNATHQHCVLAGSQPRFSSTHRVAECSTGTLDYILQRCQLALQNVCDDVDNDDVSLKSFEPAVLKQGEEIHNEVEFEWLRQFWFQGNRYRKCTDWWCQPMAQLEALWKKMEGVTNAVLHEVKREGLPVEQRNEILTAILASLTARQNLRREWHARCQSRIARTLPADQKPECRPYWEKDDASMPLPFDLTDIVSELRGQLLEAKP

| Binder | binding result (FTO) | Kd (YTHDF1 YTH domain) [nM] | binding result (YTHDC1 YTH domain [1]) | binding result (YTHDF3 YTH domain [2]) | binding result (YTHDF2 YTH domain [3]) | binding result (YTHDF3 YTH domain [4]) | binding result (YTHDF2 YTH domain [5]) | binding result (YTHDC1 YTH domain [6]) | binding result (YTHDC2 YTH domain) |
| --- | --- | --- | --- | --- | --- | --- | --- | --- | --- |
| GAACCGGACUGUCUUA (ssRNA, m6A at position 8) [FAM-m6A-RNA] | binds | 800 | binds | binds | binds | – | – | – | – |
| GAACCGGACUGUCUUA (ssRNA, m6A at position 8) [m6A-RNA (non-fluorescent)] | – | – | – | – | – | binds | binds | binds | binds |
